From patent publication US20200317768A1 (published 2020)
Numbering of substitutions follows the chain as printed. In names and notes the source's numbering stands.

Legend:
[1] = target: T1, human FcγRIIb extracellular domain, C-terminal His-tag (human, UniProt P31994 43-217); assay: SPR (BIACORE); KD of parent SG1 / KD of variant;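 also: relative to parent M103205H795-SG1 carrying the SG1 human heavy chain constant region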
T1 construct: also called humanFcgRIIb; not shown: His-tag added to C-terminus
T1 sequence: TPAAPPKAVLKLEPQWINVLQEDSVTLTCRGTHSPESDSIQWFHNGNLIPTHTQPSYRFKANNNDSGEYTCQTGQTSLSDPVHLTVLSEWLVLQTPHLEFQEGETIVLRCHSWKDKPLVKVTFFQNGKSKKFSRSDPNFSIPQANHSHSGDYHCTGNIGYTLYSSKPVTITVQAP
Procedure: (§1) The kinetic analysis of interactions between these antibodies and FcγR was carried out using BIACORE® T200 or BIACORE® 4000 (GE Healthcare). HBS-EP+ (GE Healthcare) was used as the running buffer, and the measurement temperature was set to 25° C. A chip produced by immobilizing Protein A. Protein A/G or mouse anti-human IgG kappa light chain (BD Biosciences) onto a Series S Sensor Chip CM4 or CM5 (GE Healthcare) by the amine-coupling method was used. […] After the measurement, the antibody captured on the chip was washed off by allowing reaction with 10 mM glycine-HCl, pH1.5 and 25 mM NaOH so that the chip was regenerated and used repeatedly. The sensorgrams obtained as measurement results were analyzed by the 1:1 Langmuir binding model using the BIACORE® Evaluation Software to calculate the binding rate constant ka (L/mol/s) and dissociation rate constant kd (l/s), and the dissociation constant KD (mol/L) was calculated from these values. […] Regarding such interactions, KD values were calculated using the following 1:1 binding model described in BIACORE® T100 Software Handbook BR1006-48 Edition AE.

[2] = target: T2, cynomolgus monkey FcγRIIa3 extracellular domain, C-terminal His-tag (cynomolgus monkey); assay: SPR (BIACORE); KD of parent SG1 / KD of variant;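 also: relative to parent M103205H795-SG1 carrying the SG1 human heavy chain constant region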
T2 construct: also called cyno FcγRIIa3; cynoFcgRIIa3; not shown: His-tag added to C-terminus
T2 chain: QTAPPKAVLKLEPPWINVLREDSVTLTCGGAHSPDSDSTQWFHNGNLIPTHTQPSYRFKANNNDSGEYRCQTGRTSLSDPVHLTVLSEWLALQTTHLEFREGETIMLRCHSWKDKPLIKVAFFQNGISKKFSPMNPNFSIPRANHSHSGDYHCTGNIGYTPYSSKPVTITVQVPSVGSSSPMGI
Procedure: as §1

[3] = target: T3, cynomolgus monkey FcγRIIa2 extracellular domain, C-terminal His-tag (cynomolgus monkey); assay: SPR (BIACORE); KD of parent SG1 / KD of variant;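 also: relative to parent M103205H795-SG1 carrying the SG1 human heavy chain constant region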
T3 construct: also called cyno FcγRIIa2; cynoFcgRIIa2; not shown: His-tag added to C-terminus
T3 chain: T2 chain with I127K, K130N, P133H, R142Q
Procedure: as §1

[4] = target: T4, human FcγRIIaH extracellular domain, C-terminal His-tag (human, UniProt P12318 34-217); assay: SPR (BIACORE); KD of parent SG1 / KD of variant;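 also: relative to parent M103205H795-SG1 carrying the SG1 human heavy chain constant region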
T4 construct: also called human FcγRIIa (type H); FcgRIIaH; not shown: His-tag added to C-terminus
T4 sequence: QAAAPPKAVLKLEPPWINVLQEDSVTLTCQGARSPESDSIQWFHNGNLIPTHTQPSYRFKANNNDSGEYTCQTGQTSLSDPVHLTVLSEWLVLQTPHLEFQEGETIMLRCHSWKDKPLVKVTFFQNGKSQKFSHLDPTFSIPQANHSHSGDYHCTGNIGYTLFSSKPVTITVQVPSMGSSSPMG
Procedure: as §1

[5] = target: T5, human FcγRIIIaV extracellular domain, C-terminal His-tag (human, UniProt P08637 17-208); assay: SPR (BIACORE); KD of parent SG1 / KD of variant
T5 construct: also called FcgRIIIaV; not shown: His-tag added to C-terminus
Procedure: as §1

[6] = target: T6, cynomolgus monkey FcγRIIb extracellular domain, C-terminal His-tag (cynomolgus monkey); assay: SPR (BIACORE); KD of parent SG1 / KD of variant
T6 construct: also called cyno FcγRIIb; cynoFcγRIIb; not shown: His-tag added to C-terminus
T6 chain: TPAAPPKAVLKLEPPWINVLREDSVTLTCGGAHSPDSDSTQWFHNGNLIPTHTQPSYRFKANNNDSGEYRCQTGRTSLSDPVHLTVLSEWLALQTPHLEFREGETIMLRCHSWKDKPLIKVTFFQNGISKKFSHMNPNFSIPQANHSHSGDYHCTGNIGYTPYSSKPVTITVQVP
Procedure: as §1

[7] = target: T7, cynomolgus monkey FcγRIIa1 extracellular domain, C-terminal His-tag (cynomolgus monkey); assay: SPR (BIACORE); KD of parent SG1 / KD of variant
T7 construct: also called cyno FcγRIIa1; cynoFcgRIIa1; not shown: His-tag added to C-terminus
T7 chain: T2 chain with T95P, A121T, S128A, P133H, N135D
Procedure: as §1

[8] = target: T8, cynomolgus monkey FcγRIIIaS extracellular domain, C-terminal His-tag (cynomolgus monkey, UniProt A3RFZ7 21-206 (rhesus entry)); assay: SPR (BIACORE); KD of parent SG1 / KD of variant
T8 construct: also called cyno FcγRIIIaS; cynoFcγRIIIaS; not shown: His-tag added to C-terminus
Procedure: as §1

[9] = target: T9, human FcγRIIaR extracellular domain, C-terminal His-tag (human, UniProt P12318 34-217); assay: SPR (BIACORE); KD of parent SG1 / KD of variant
T9 construct: also called human FcγRIIa (type R); FcgRIIaR; not shown: His-tag added to C-terminus
T9 chain: T4 sequence with H134R
Procedure: as §1

[10] = target: T1, human FcγRIIb extracellular domain, …; assay: SPR (BIACORE), antibody captured, FcγR analyte
Procedure: as §1

[11] = target: T2, cynomolgus monkey FcγRIIa3 …; assay: SPR (BIACORE), antibody captured, FcγR analyte
Procedure: as §1

[12] = target: T3, cynomolgus monkey FcγRIIa2 …; assay: SPR (BIACORE), antibody captured, FcγR analyte
Procedure: as §1

[13] = target: T4, human FcγRIIaH extracellular domain, …; assay: SPR (BIACORE), antibody captured, FcγR analyte
Procedure: as §1

[14] = target: T5, human FcγRIIIaV extracellular domain, …; assay: SPR (BIACORE), antibody captured, FcγR analyte
Procedure: as §1

[15] = target: T6, cynomolgus monkey FcγRIIb extracellular …; assay: SPR (BIACORE), antibody captured, FcγR analyte
Procedure: as §1

[16] = target: T7, cynomolgus monkey FcγRIIa1 …; assay: SPR (BIACORE), antibody captured, FcγR analyte
Procedure: as §1

[17] = target: T8, cynomolgus monkey FcγRIIIaS …; assay: SPR (BIACORE), antibody captured, FcγR analyte
Procedure: as §1

[18] = target: T9, human FcγRIIaR extracellular domain, …; assay: SPR (BIACORE), antibody captured, FcγR analyte
Procedure: as §1

T5 sequence (P08637 17-208 F176V): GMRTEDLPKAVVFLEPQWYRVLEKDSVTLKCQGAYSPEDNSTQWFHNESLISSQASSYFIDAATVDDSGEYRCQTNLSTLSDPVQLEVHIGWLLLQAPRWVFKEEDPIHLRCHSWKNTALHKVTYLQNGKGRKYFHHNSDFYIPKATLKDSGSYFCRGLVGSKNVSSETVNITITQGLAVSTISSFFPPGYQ
T8 sequence (A3RFZ7 21-206): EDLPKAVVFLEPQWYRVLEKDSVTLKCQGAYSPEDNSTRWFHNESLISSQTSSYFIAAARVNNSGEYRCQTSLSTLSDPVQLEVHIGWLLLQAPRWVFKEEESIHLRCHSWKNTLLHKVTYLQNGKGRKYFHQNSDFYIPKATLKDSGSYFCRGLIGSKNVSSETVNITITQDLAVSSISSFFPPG

B1: M103205H795-SG1033 / M103202L889-SK1 (antibody, human IgG1, kappa)
heavy: QVTLKESGPVLVKPTETLTLTCTVSGIDLSHDDISWVRQAPGKGLEWVGIISYAGSTYYASWAKGRLTISKDTSKNQVVLTMTNMDPVDTATYYCARGVPAYSHGGDLWGQGTLVTVSSASTKGPSVFPLAPSSKSTSGGTAALGCLVKDYFPEPVTVSWNSGALTSGVHTFPAVLQSSGLYSLSSVVTVPSSSLGTQTYICNVNHKPSNTKVDKKVEPKSCDKTHTCPPCPAPELLNGPSVFLFPPKPKDTLMISRTPEVTCVVVDVSDEDPEVKFNWYVDGVEVHNAKTKPREEQYNSTYRVVSVLTVLHQDWLNGKEYKCKVSNKALPKPIEKTISKAKGQPREPQVYTLPPSREEMTKNQVSLTCLVKGFYPSDIAVEWESNGQPENNYKTTPPVLDSDGSFFLYSKLTVDKSRWQQGNVFSCSVMHEALHAHYTQKSLSLSP
light: DIVMTQSPATLSLSPGERATLSCTSSQSVYHANWLSWFQQKPGQPPKLLIYWASTLAYGVPSRFSGSGSGTDFTLTISSLQPEDAATYYCAGGYGGGRYAFGQGTKVEIKRTVAAPSVFIFPPSDEQLKSGTASVVCLLNNFYPREAKVQWKVDNALQSGNSQESVTEQDSKDSTYSLSSTLTLSKADYEKHKVYACEVTHQGLSSPVTKSFNRGEC
notes: CH with G236N/H268D/A330K/N434A against SG1 (EU numbering); also called MS1032LO06-SG1033
KD fold (SG1 = 1) [1]: 3.9 fold
KD fold (SG1 = 1) [2]: 2.9 fold
KD fold (SG1 = 1) [3]: 3 fold
KD fold (SG1 = 1) [4]: 0.7 fold
KD fold (SG1 = 1) [5]: 0.05 fold
KD fold (SG1 = 1) [6]: 3.9 fold
KD fold (SG1 = 1) [7]: 2.6 fold
KD fold (SG1 = 1) [8]: 0.06 fold
KD fold (SG1 = 1) [9]: 1 fold
Kd [10]: 1200 nM
Kd [11]: 3000 nM
Kd [12]: 1500 nM
Kd [13]: 1200 nM
Kd [14]: 12000 nM
Kd [15]: 500 nM
Kd [16]: 1800 nM
Kd [17]: 4400 nM
Kd [18]: 1000 nM

B2: MS_M103240H795-SG1/M103202L1045-SK1 (antibody, human IgG1, kappa)
heavy: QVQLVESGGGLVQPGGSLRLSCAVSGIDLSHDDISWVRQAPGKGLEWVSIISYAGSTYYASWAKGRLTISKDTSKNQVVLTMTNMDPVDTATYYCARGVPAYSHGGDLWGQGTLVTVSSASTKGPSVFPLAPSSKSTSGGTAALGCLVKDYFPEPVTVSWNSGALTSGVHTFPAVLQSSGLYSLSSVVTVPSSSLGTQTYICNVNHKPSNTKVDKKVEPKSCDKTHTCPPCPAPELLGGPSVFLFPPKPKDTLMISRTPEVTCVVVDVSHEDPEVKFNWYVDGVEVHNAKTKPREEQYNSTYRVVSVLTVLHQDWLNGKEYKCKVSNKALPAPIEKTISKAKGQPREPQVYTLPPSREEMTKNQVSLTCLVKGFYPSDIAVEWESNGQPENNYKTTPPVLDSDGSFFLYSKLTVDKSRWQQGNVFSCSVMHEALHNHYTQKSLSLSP
light: B1 light with S25T, A32E
notes: Parent of the MS1032LO19 Fc variants; also called MS1032LO19-SG1; MS103240H795-SG1
KD fold (SG1 = 1) [1]: 1 fold
KD fold (SG1 = 1) [2]: 1 fold
KD fold (SG1 = 1) [3]: 1 fold
KD fold (SG1 = 1) [4]: 1 fold
KD fold (SG1 = 1) [5]: 1 fold
KD fold (SG1 = 1) [6]: 1 fold
KD fold (SG1 = 1) [7]: 1 fold
KD fold (SG1 = 1) [8]: 1 fold
KD fold (SG1 = 1) [9]: 1 fold
Kd [10]: 3800 nM
Kd [11]: 6600 nM
Kd [12]: 4100 nM
Kd [13]: 970 nM
Kd [14]: 580 nM
Kd [15]: 1700 nM
Kd [16]: 8800 nM
Kd [17]: 260 nM
Kd [18]: 960 nM

B3: M103240H795-SG1071 / M103202L1045-SK1 (antibody)
heavy: QVQLVESGGGLVQPGGSLRLSCAVSGIDLSHDDISWVRQAPGKGLEWVSIISYAGSTYYASWAKGRLTISKDTSKNQVVLTMTNMDPVDTATYYCARGVPAYSHGGDLWGQGTLVTVSSASTKGPSVFPLAPSSKSTSGGTAALGCLVKDYFPEPVTVSWNSGALTSGVHTFPAVLQSSGLYSLSSVVTVPSSSLGTQTYICNVNHKPSNTKVDKKVEPKSCDKTHTCPPCPAPELLNGPSVFLFPPKPKDTLMISRTPEVTCVVVDVSDEDPEVKFNWYVDGVEVHNAKTKPREELYNSTYRVVSVLTVLHRDWLNGKEYKCKVSNKALPKPIEKTISKAKGQPREPQVYTLPPSREEMTKNQVSLTCLVKGFYPSDIAVEWESNGQPENNYKTTPPVLDSDGSFFLYSKLTVKKSRWQQGNVFSCSVLHEALHAHTTRKELSLSP
light: B1 light with S25T, A32E
notes: CH with G236N/H268D/Q295L/Q311R/A330K/D413K/M428L/N434A/Y436T/Q438R/S440E against SG1 (EU numbering); also called MS1032LO19-SG1071
KD fold (SG1 = 1) [1]: 5.6 fold
KD fold (SG1 = 1) [2]: 3.1 fold
KD fold (SG1 = 1) [3]: 3.2 fold
KD fold (SG1 = 1) [4]: 1.4 fold
KD fold (SG1 = 1) [5]: 0.04 fold
KD fold (SG1 = 1) [6]: 5.3 fold
KD fold (SG1 = 1) [7]: 3 fold
KD fold (SG1 = 1) [8]: 0.07 fold
KD fold (SG1 = 1) [9]: 0.8 fold
Kd [10]: 680 nM
Kd [11]: 2100 nM
Kd [12]: 1500 nM
Kd [13]: 690 nM
Kd [14]: 14000 nM
Kd [15]: 530 nM
Kd [16]: 1200 nM
Kd [17]: 5800 nM
Kd [18]: 1200 nM

B4: M103205H795-SG1034 / M103202L889-SK1 (antibody, human IgG1, kappa)
heavy: B1 heavy with N238T, Q313R, D415K
light: B1 light
notes: CH with G236T/H268D/Q311R/A330K/D413K/N434A against SG1 (EU numbering); also called MS1032LO06-SG1034
KD fold (SG1 = 1) [1]: 1.8 fold
KD fold (SG1 = 1) [2]: 2 fold
KD fold (SG1 = 1) [3]: 1.7 fold
KD fold (SG1 = 1) [4]: 2.9 fold
KD fold (SG1 = 1) [5]: 0.09 fold
KD fold (SG1 = 1) [6]: 2.2 fold
KD fold (SG1 = 1) [7]: 1.5 fold
KD fold (SG1 = 1) [8]: 0.15 fold
KD fold (SG1 = 1) [9]: 4.1 fold
Kd [10]: 2600 nM
Kd [11]: 4200 nM
Kd [12]: 2700 nM
Kd [13]: 810 nM
Kd [14]: 7100 nM
Kd [15]: 880 nM
Kd [16]: 8100 nM
Kd [17]: 2200 nM
Kd [18]: 250 nM
